Changes are numbered by the printed parent chain. Numbers in names are those of the source.

Data on three molecules can be found in PMC12442453.

The target in test [1] is T1, human EPOR ectodomain (ECD) fused to a human Fc domain (EPOR-Fc), P19235.
T1 chain: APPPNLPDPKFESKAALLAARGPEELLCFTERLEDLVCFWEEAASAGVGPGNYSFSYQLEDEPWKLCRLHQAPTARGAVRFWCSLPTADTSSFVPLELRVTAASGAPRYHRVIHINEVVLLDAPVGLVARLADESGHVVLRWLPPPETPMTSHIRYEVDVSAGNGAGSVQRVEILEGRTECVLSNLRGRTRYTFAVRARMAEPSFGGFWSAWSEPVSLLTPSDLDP
As to the kind of experiment: BLI. The settings on record: chain shown with the change; solution-phase Db-Fc, immobilized EPOR-Fc.

In test [2] the target is T2, human EPOR, endogenous on TF-1 cells (human (endogenous in TF-1)) (UniProt P19235).
T2 sequence: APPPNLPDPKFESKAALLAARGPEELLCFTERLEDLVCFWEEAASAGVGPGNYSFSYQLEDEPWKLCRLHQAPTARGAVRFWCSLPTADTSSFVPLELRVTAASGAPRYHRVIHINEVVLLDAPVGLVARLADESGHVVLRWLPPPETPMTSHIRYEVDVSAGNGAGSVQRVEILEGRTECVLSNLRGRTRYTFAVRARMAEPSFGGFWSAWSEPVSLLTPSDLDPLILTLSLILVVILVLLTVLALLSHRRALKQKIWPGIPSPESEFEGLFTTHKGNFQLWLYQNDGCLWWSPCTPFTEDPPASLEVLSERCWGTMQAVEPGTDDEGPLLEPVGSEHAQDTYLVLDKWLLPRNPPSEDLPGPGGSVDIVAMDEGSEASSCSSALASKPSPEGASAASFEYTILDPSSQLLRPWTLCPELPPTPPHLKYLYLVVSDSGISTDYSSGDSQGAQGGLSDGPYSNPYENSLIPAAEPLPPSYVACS

In test [3] the target is VL–VH 1.1 without an Fc domain. As to the kind of experiment: crystal structure; VL–VH 1.1 alone, space group P21, 2.06 Å, four chains in the asymmetric unit; 20% PEG8000, 100 mM CHES.

B1: Db-Fc 1 L:Y109D; L:I116F; H:Y35R; H:I39M; H:Y59H; H:S63G; H:G114S (protein)
chain 1: EVQLVESGGGLVQPGGSLRLSCAASGFNLRSYYMHWVRQAPGKGLEWVASISPHYGYTYYADSVKGRFTISADTSKNTAYLQMNSLRAEDTAVYYCARHGYSAMDYWGQGTLVTVSS
chain 2: DIQMTQSPSSLSASVGDRVTITCRASQSVSSAVAWYQQKPGKAPKLLIYSASSLYSGVPSRFSGSRSGTDFTLTISSLQPEDFATYYCQQSSDSLFTFGQGTKVEIK
As usually defined, the Kd is the constant that tells how readily two partners part at equilibrium. Higher therefore signals lower affinity. Take B1: the Kd in test [1] worked out at 3.8 nM.

B2: Db-Fc 1.3 (Fc fusion)
VH: B1 chain 1
VL: B1 chain 2
Consider B2, for which, in test [2], the UT-7/Epo cell proliferation, EC50; Hb-Fc3 fraction of variant 1.3 (putative hexamer) stood at 1.1 nM; the UT-7/Epo cell proliferation, EC50; purified Db-Fc fraction of variant 1.3 (putative dimer) was determined as 16 nM; the UT-7/Epo cell proliferation, EC50; unfractionated Db-Fcmix 1.3 is 1.8 nM; the UT-7/Epo cell proliferation, maximum response; Hb-Fc3 fraction of variant 1.3 (putative hexamer) turned out to be 3.4e+06 RLU. In addition, in test [2], the UT-7/Epo cell proliferation, maximum response; purified Db-Fc fraction of variant 1.3 (putative dimer) worked out at 600000 RLU and the UT-7/Epo cell proliferation, maximum response; unfractionated Db-Fcmix 1.3 turned out to be 2.5e+06 RLU.

B3: VL–VH 1.1 without an Fc domain (protein)
VH: B1 chain 1 with H54Y, G56S, S102G
VL: B1 chain 2 with D93Y, F96I
What is called stoichiometry N is the number of molecules, sites or subunits per partner or assembly. In turn, B3 came in with a stoichiometry N in test [3] of 4.
